Experimental data reported in US20230192890A1.
Each block holds one binder with its values, some of them ahead of it.

Columns and labels:
[1] = target: T1, Ala mutant SEQ ID NO: 27 (human); assay: ELISA, peptide on plate (10 ug/mL)
T1 sequence (peptide): AENMDDQWMQDEMEIGY

[2] = target: T2, Ala mutant SEQ ID NO: 28 (human); assay: ELISA, peptide on plate (10 ug/mL)
T2 sequence (peptide): EANMDDQWMQDEMEIGY

[3] = target: T3, Ala mutant SEQ ID NO: 29 (human); assay: ELISA, peptide on plate (10 ug/mL)
T3 sequence (peptide): EEAMDDQWMQDEMEIGY

[4] = target: T4, Ala mutant SEQ ID NO: 30 (human); assay: ELISA, peptide on plate (10 ug/mL)
T4 sequence (peptide): EENADDQWMQDEMEIGY

[5] = target: T5, Ala mutant SEQ ID NO: 31 (human); assay: ELISA, peptide on plate (10 ug/mL)
T5 sequence (peptide): EENMADQWMQDEMEIGY

[6] = target: T6, Ala mutant SEQ ID NO: 33 (human); assay: ELISA, peptide on plate (10 ug/mL)
T6 sequence (peptide): EENMDDAWMQDEMEIGY

[7] = target: T7, Ala mutant SEQ ID NO: 36 (human); assay: ELISA, peptide on plate (10 ug/mL)
T7 sequence (peptide): EENMDDQWMADEMEIGY

[8] = target: T8, Ala mutant SEQ ID NO: 37 (human); assay: ELISA, peptide on plate (10 ug/mL)
T8 sequence (peptide): EENMDDQWMQAEMEIGY

[9] = target: T9, Ala mutant SEQ ID NO: 38 (human); assay: ELISA, peptide on plate (10 ug/mL)
T9 sequence (peptide): EENMDDQWMQDAMEIGY

[10] = target: T10, Ala mutant SEQ ID NO: 39 (human); assay: ELISA, peptide on plate (10 ug/mL)
T10 sequence (peptide): EENMDDQWMQDEAEIGY

[11] = target: T11, Ala mutant SEQ ID NO: 40 (human); assay: ELISA, peptide on plate (10 ug/mL)
T11 sequence (peptide): EENMDDQWMQDEMAIGY

[12] = target: T12, Ala mutant SEQ ID NO: 41 (human); assay: ELISA, peptide on plate (10 ug/mL)
T12 sequence (peptide): EENMDDQWMQDEMEAGY

[13] = target: T13, Ala mutant SEQ ID NO: 42 (human); assay: ELISA, peptide on plate (10 ug/mL)
T13 sequence (peptide): EENMDDQWMQDEMEIAY

[14] = target: T14, Ala mutant SEQ ID NO: 43 (human); assay: ELISA, peptide on plate (10 ug/mL)
T14 sequence (peptide): EENMDDQWMQDEMEIGA

[15] = target: T15, Ala mutant having 3-amino acid substitution, SEQ ID NO: 44 (human); assay: ELISA, peptide on plate (10 ug/mL)
T15 sequence (peptide): AAAMDDQWMQDEMEIGY

[16] = target: T16, Ala mutant having 3-amino acid substitution, SEQ ID NO: 46 (human); assay: ELISA, peptide on plate (10 ug/mL)
T16 sequence (peptide): EENMDDAAAQDEMEIGY

[17] = target: T17, Ala mutant having 3-amino acid substitution, SEQ ID NO: 47 (human); assay: ELISA, peptide on plate (10 ug/mL)
T17 sequence (peptide): EENMDDQWMAAAMEIGY

[18] = target: T18, Ala mutant having 3-amino acid substitution, SEQ ID NO: 48 (human); assay: ELISA, peptide on plate (10 ug/mL)
T18 sequence (peptide): EENMDDQWMQDEAAAGY

[19] = target: T19, Ala mutant having 3-amino acid substitution, SEQ ID NO: 49 (human); assay: ELISA, peptide on plate (10 ug/mL)
T19 sequence (peptide): EENMDDQWMQDEMEIAA

[20] = target: T20, TA0096 (peptide antigen corresponding to positions 340 to 356 of PAD4) (human); assay: ELISA, peptide on plate (10 ug/mL)
T20 sequence (peptide): EENMDDQWMQDEMEIGY

[21] = target: full-length recombinant mouse PAD4 (mouse) (UniProt Q9Z183); assay: ELISA, mouse PAD4 on plate, antibody 1 ug/mL
[22] = target: full-length recombinant mouse PAD4 (mouse) (UniProt Q9Z183); assay: ELISA, mouse PAD4 on plate, antibody 0.25 ug/mL
[23] = target: full-length recombinant mouse PAD4 (mouse) (UniProt Q9Z183); assay: ELISA, mouse PAD4 on plate, antibody 0.0625 ug/mL
[24] = target: full-length recombinant mouse PAD4 (mouse) (UniProt Q9Z183); assay: ELISA, mouse PAD4 on plate, antibody 0.015625 ug/mL
[25] = target: full-length recombinant mouse PAD4 (mouse) (UniProt Q9Z183); assay: ELISA, mouse PAD4 on plate, antibody 0.0002441 ug/mL
[26] = target: full-length recombinant mouse PAD4 (mouse) (UniProt Q9Z183); assay: ELISA, mouse PAD4 on plate, antibody 0.0009766 ug/mL
[27] = target: full-length recombinant mouse PAD4 (mouse) (UniProt Q9Z183); assay: ELISA, mouse PAD4 on plate, antibody 0.0039063 ug/mL
[28] = target: full-length recombinant mouse PAD4 (mouse) (UniProt Q9Z183); assay: ELISA, mouse PAD4 on plate, antibody 6.104E-05 ug/mL

full-length recombinant mouse PAD4 (mouse), sequence (Q9Z183 whole entry): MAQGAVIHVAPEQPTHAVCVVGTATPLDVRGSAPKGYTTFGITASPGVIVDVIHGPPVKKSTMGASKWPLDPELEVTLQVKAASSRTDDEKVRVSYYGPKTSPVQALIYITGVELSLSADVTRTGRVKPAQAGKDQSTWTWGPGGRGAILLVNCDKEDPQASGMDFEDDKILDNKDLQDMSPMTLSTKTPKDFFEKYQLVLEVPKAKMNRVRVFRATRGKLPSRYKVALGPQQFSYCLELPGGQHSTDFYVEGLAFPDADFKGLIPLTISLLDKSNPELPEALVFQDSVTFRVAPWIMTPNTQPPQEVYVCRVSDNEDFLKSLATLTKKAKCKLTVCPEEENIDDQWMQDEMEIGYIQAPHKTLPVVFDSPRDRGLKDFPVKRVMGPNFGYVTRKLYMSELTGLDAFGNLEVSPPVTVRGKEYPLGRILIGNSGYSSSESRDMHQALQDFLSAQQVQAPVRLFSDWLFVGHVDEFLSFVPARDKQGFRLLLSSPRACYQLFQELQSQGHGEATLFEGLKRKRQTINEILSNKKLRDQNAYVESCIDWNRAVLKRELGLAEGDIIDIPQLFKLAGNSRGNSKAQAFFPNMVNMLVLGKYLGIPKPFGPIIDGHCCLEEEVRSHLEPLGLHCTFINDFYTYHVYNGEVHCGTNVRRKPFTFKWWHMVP

absorbance 490 nm/630 nm [1]: 1.96 OD
absorbance 490 nm/630 nm [2]: 1.94 OD
absorbance 490 nm/630 nm [3]: 1.91 OD
absorbance 490 nm/630 nm [4]: 1.93 OD
absorbance 490 nm/630 nm [5]: 1.85 OD
absorbance 490 nm/630 nm [6]: 1.98 OD
absorbance 490 nm/630 nm [7]: 1.92 OD
absorbance 490 nm/630 nm [8]: 1.88 OD
absorbance 490 nm/630 nm [9]: 1.91 OD
absorbance 490 nm/630 nm [10]: 1.88 OD
absorbance 490 nm/630 nm [11]: 1.89 OD
absorbance 490 nm/630 nm [12]: 1.85 OD
absorbance 490 nm/630 nm [13]: 1.86 OD
absorbance 490 nm/630 nm [14]: 1.92 OD
absorbance 490 nm/630 nm [15]: 1.9 OD
absorbance 490 nm/630 nm [16]: 0.178 OD
absorbance 490 nm/630 nm [17]: 1.86 OD
absorbance 490 nm/630 nm [18]: 1.88 OD
absorbance 490 nm/630 nm [19]: 1.86 OD
absorbance 490 nm/630 nm [20]: 1.88 OD
absorbance 490 nm/630 nm [21]: 2.26 OD
absorbance 490 nm/630 nm [22]: 2.25 OD
absorbance 490 nm/630 nm [23]: 2.22 OD
absorbance 490 nm/630 nm [24]: 2.25 OD
absorbance 490 nm/630 nm [25]: 0.205 OD
absorbance 490 nm/630 nm [26]: 0.555 OD
absorbance 490 nm/630 nm [27]: 1.42 OD
absorbance 490 nm/630 nm [28]: 0.122 OD
B1: G8 (antibody, IgG1, V domains shown)
VH: AVTLDESGGGLQTPGGALSLVCKASGFTFSTYAMGWMRQAPGKGLEYVAAIRNDGSWTGYGAAVKGRATILRDNGQSTVRLQLSNLRAEDTGTYYCAKYTGSSGGSIGAWGHGTEVIVS
VL: ASTQPSSVSANLGGTVEITCSGGNRNYYYGWYQQKSPGSAPVTLIYANDKRPSNIPSRFSGSKSGSTGTLTITGVQAEDEAVYFCGTADTGKYVFGAGTTLTVL

absorbance 490 nm/630 nm [1]: 1.9 OD
absorbance 490 nm/630 nm [2]: 1.95 OD
absorbance 490 nm/630 nm [3]: 1.9 OD
absorbance 490 nm/630 nm [4]: 1.95 OD
absorbance 490 nm/630 nm [5]: 0.462 OD
absorbance 490 nm/630 nm [6]: 1.87 OD
absorbance 490 nm/630 nm [7]: 1.87 OD
absorbance 490 nm/630 nm [8]: 1.86 OD
absorbance 490 nm/630 nm [9]: 1.99 OD
absorbance 490 nm/630 nm [10]: 1.81 OD
absorbance 490 nm/630 nm [11]: 1.86 OD
absorbance 490 nm/630 nm [12]: 1.83 OD
absorbance 490 nm/630 nm [13]: 1.85 OD
absorbance 490 nm/630 nm [14]: 1.87 OD
absorbance 490 nm/630 nm [15]: 1.9 OD
absorbance 490 nm/630 nm [17]: 1.67 OD
absorbance 490 nm/630 nm [18]: 1.87 OD
absorbance 490 nm/630 nm [19]: 1.86 OD
absorbance 490 nm/630 nm [20]: 1.82 OD
absorbance 490 nm/630 nm [21]: 2.3 OD
absorbance 490 nm/630 nm [22]: 2.31 OD
absorbance 490 nm/630 nm [23]: 2.29 OD
absorbance 490 nm/630 nm [24]: 2.26 OD
absorbance 490 nm/630 nm [25]: 0.224 OD
absorbance 490 nm/630 nm [26]: 0.55 OD
absorbance 490 nm/630 nm [27]: 1.41 OD
absorbance 490 nm/630 nm [28]: 0.103 OD
B2: H7 (antibody, IgG1, V domains shown)
VH: B1 VH
VL: ASTQPSSVSANPGGTVEITCSGGSGRYYYGWYQQKSPGSAPVTVIYSSTHRPSNIPSRFSGSKSGSTATLTITGVQAEDEAVYFCGTADSSSYVFGAGTTLTVL
